The source of these data is US8216580B2, “Sulfatases and methods of use thereof” (The Regents of the University of California, priority 2000, dated 2012).

The conditions of data set [1]: comparison enzymes; cited from earlier work.
The nature of data set [2]: Arylsulfatase activity assay with 4-MUS substrate. It is filed as biochemical. The following applies: 1 milliunit, 24 hr incubation. The protocol:
The 100-fold concentrated conditioned medium (CM) derived from each transfection of CHO cells as described above was dialyzed into 50 mM HEPES, pH 8.0. The His-tagged fusion proteins were bound to a Ni-NTA resin (QIAGEN) by rotation at 4° C. over night, then washed with 50 mM HEPES (pH 8.0), 3 times. 250 mM imidazole in 50 mM HEPES, pH 8.0 was used to elute the His-tagged fusion proteins from Ni-NTA. The resins with boud material or the eluates were mixed with 10 mM 4-methylumbelliferyl-sulfate (4-MUS; a substrate for sulfatases), and 10 mM lead acetate, in a total volume of 100 μl. The reaction mixtures were incubated at 37° C. for various periods of time. Reactions were terminated by the addition of 100 μl of 0.5 M Na2CO3/NaHCO3, pH 10.7 to 20 μl of the reaction mixture. The fluorescence of 4-methylumbelliferone was measured on a Multi-Well Plate Reader CytoFluorII (PerSeptive Biosystems). The fluorescence was determined at an excitation wavelength of 360 nm and emission wavelength of 460 nm. A substrate dose response curve was performed over the concentration range of 1 to 10 mM 4-MUS.
The synthetic fluorogenic compound 4-methylumbelliferyl sulfate (4-MUS) serves as a substrate for most sulfatases, both in the lysosomal and non-lysosomal classes. CHO cells were transfected with a cDNA for HSulf-1 or HSulf-2 or a vector control. Conditioned medium was collected and incubated with nickel resin (Ni-NTA) to bind the His-tagged recombinant proteins. The bead-bound material was assayed for activity on 4-MUS. For both enzymes, hydrolysis depended on time of reaction (FIG. 15A), concentration of substrate (FIG. 15B), and amount of CM (FIG. 15C). From the substrate dose-response curves of FIG. 15B and based on estimates of Sulf protein levels in CM, we approximated Vmax for the two Sulfs to be in the range of 1000-2000 nmol per min per mg of Sulf protein. Human glucosamine-6-sulfatase has a considerably lower Vmax against 4-MUS ([…]) whereas the Vmax of human N-acetylgalactosamine-4-sulfatase (arylsulfatase B) is much higher (48000).
HSulf-1, HSulf-2 or their mutated forms (HSulf-1 ΔCC and HSulf-2 ΔCC) was purified from the conditioned medium of transfected CHO cells by binding to Ni-NTA beads. A) The bead-bound material was tested for arylsulfatase activity as a function of time against 10 mM 4-MUS substrate at pH 8. The “no-enzyme” control was based on testing conditioned medium from vector-control transfected CHO cells. No activity was detected in the absence of added substrate (not shown). […] The activity of each Sulf was determined relative to that of beads exposed to an equivalent volume of vector-control conditioned medium. The activity of HG6S was determined (24 hr incubation) relative to that of the buffer. […]

In the case of “human N-acetylgalactosamine-4-sulfatase: human N-acetylgalactosamine-4-sulfatase (arylsulfatase B), comparison enzyme [reference compound]”, the Vmax against 4-MUS in data set [1] was 48000 nmol/min/mg.

B1: Human glucosamine-6-sulfatase: human lysosomal glucosamine-6-sulfatase, purchased from Glyko Inc. (protein, UniProt P15586 37-552, looked up)
N-acetylglucosamine-6-sulfatas …: VFGVAAGTRRPNVVLLLTDDQDEVLGGMTPLKKTKALIGEMGMTFSSAYVPSALCCPSRASILTGKYPHNHHVVNNTLEGNCSSKSWQKIQEPNTFPAILRSMCGYQTFFAGKYLNEYGAPDAGGLEHVPLGWSYWYALEKNSKYYNYTLSINGKARKHGENYSVDYLTDVLANVSLDFLDYKSNFEPFFMMIATPAPHSPWTAAPQYQKAFQNVFAPRNKNFNIHGTNKHWLIRQAKTPMTNSSIQFLDNAFRKRWQTLLSVDDLVEKLVKRLEFTGELNNTYIFYTSDNGYHTGQFSLPIDKRQLYEFDIKVPLLVRGPGIKPNQTSKMLVANIDLGPTILDIAGYDLNKTQMDGMSLLPILRGASNLTWRSDVLVEYQGEGRNVTDPTCPSLSPGVSQCFPDCVCEDAYNNTYACVRTMSALWNLQYCEFDDQEVFVEVYNLTADPDQITNIAKTIDPELLGKMNYRLMMLQSCSGPTCRTPGVFDPGYRFDPRLMFSNRGSVRTRRFSKHLL
In the case of B1, the “arylsulfatase activity at pH 5” value in data set [2] (pH 5) is “measurable activity”. Further, the “arylsulfatase activity at pH 8” value in data set [2] (pH 8) is reported as “none”. Moreover, the Vmax against 4-MUS in data set [1] was 100 nmol/min/mg.
